From US20180258163A1 (Chugai, published 2018) come the findings set out here.

The chains are these.
T1: soluble human FcγRIIb (human, UniProt P31994 43-217, limits assumed)
T1 construct: soluble His-tagged form; also called hFcγRIIb
T1 sequence (looked up): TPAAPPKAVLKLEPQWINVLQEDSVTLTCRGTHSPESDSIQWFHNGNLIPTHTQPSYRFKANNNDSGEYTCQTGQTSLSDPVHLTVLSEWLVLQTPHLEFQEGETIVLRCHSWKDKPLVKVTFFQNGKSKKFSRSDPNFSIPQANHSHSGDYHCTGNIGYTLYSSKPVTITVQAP

B1: Ab1H-P921/Ab1L (antibody, human IgG1, kappa, name in EU numbering)
heavy: QVQLVESGGGLVQPGGSLRLSCAASGFTLSNHDMTWVRQAPGKGLEYVSIINTYGNHWYANWASGRFTISRDNSKNTVYLQIDSLRAEDTATYYCARETHHGSSGIDHWGQGTLVTVSSASTKGPSVFPLAPSSKSTSGGTAALGCLVKDYFPEPVTVSWNSGALTSGVHTFPAVLQSSGLYSLSSVVTVPSSSLGTQTYICNVNHKPSNTKVDKKVEPKSCDKTHTCPPCPAPELLGGDSVFLFPPKPKDTLMISRTPEVTCVVVDVSHEDPEVKFNWYVDGVEVHNAKTKPREEQYNATYRVVSVLTVLHQDWLNGKEYKCKVSNKALPARIEKTISKAKGQPREPQVYTLPPSREEMTKNQVSLTCLVKGFYPSDIAVEWESNGQPENNYKTTPPVLDSDGSFFLYSKLTVDKSRWQQGNVFSCSVMHEALHNHYTQKSLSLSP
light: DIQMTQSPSSVSASVGDRVTITCQASESIYSGLAWYQQKPGQPPKLLIYDHSTLASGVPSRFSGSGSGTEYALTISSLQPEDFATYYCQHADYAHHSDNVFGGGTKVEIKRTVAAPSVFIFPPSDEQLKSGTASVVCLLNNFYPREAKVQWKVDNALQSGNSQESVTEQDSKDSTYSLSSTLTLSKADYEKHKVYACEVTHQGLSSPVTKSFNRGEC
notes: copies: 2 + 2
B2: Ab1H-P927/Ab1L (antibody, human IgG1, kappa, name in EU numbering)
heavy: QVQLVESGGGLVQPGGSLRLSCAASGFTLSNHDMTWVRQAPGKGLEYVSIINTYGNHWYANWASGRFTISRDNSKNTVYLQIDSLRAEDTATYYCARETHHGSSGIDHWGQGTLVTVSSASTKGPSVFPLAPSSKSTSGGTAALGCLVKDYFPEPVTVSWNSGALTSGVHTFPAVLQSSGLYSLSSVVTVPSSSLGTQTYICNVNHKPSNTKVDKKVEPKSCDKTHTCPPCPAPELLGGDSVFLFPPKPKDTLMISRTPEVTCVVVDVSHEDPEVKFNWYVDGVEVHNAKTKPRERQYNATYRVVSVLTVLHQDWLNGKEYKCKVSNKALPAPIEKTISKAKGQPREPQVYTLPPSREEMTKNQVSLTCLVKGFYPSDIAVEWESNGQPENNYKTTPPVLDSDGSFFLYSKLTVDKSRWQQGNVFSCSVMHEALHNHYTQKSLSLSP
light: DIQMTQSPSSVSASVGDRVTITCQASESIYSGLAWYQQKPGQPPKLLIYDHSTLASGVPSRFSGSGSGTEYALTISSLQPEDFATYYCQHADYAHHSDNVFGGGTKVEIKRTVAAPSVFIFPPSDEQLKSGTASVVCLLNNFYPREAKVQWKVDNALQSGNSQESVTEQDSKDSTYSLSSTLTLSKADYEKHKVYACEVTHQGLSSPVTKSFNRGEC
notes: copies: 2 + 2
B3: Ab1H-P923/Ab1L (antibody, human IgG1, kappa, name in EU numbering)
heavy: QVQLVESGGGLVQPGGSLRLSCAASGFTLSNHDMTWVRQAPGKGLEYVSIINTYGNHWYANWASGRFTISRDNSKNTVYLQIDSLRAEDTATYYCARETHHGSSGIDHWGQGTLVTVSSASTKGPSVFPLAPSSKSTSGGTAALGCLVKDYFPEPVTVSWNSGALTSGVHTFPAVLQSSGLYSLSSVVTVPSSSLGTQTYICNVNHKPSNTKVDKKVEPKSCDKTHTCPPCPAPELLGGDSVFLFPPKPKDTLMISRTPEVTCVVVDVSHEDPEVKFNWYVDGVEVHNAKTKPREEQYNATYRVVSVLTVLHRDWLNGKEYKCKVSNKALPAPIEKTISKAKGQPREPQVYTLPPSREEMTKNQVSLTCLVKGFYPSDIAVEWESNGQPENNYKTTPPVLDSDGSFFLYSKLTVDKSRWQQGNVFSCSVMHEALHNHYTQKSLSLSP
light: DIQMTQSPSSVSASVGDRVTITCQASESIYSGLAWYQQKPGQPPKLLIYDHSTLASGVPSRFSGSGSGTEYALTISSLQPEDFATYYCQHADYAHHSDNVFGGGTKVEIKRTVAAPSVFIFPPSDEQLKSGTASVVCLLNNFYPREAKVQWKVDNALQSGNSQESVTEQDSKDSTYSLSSTLTLSKADYEKHKVYACEVTHQGLSSPVTKSFNRGEC
notes: copies: 2 + 2
B4: Ab1H-P924/Ab1L (antibody, human IgG1, kappa, name in EU numbering)
heavy: QVQLVESGGGLVQPGGSLRLSCAASGFTLSNHDMTWVRQAPGKGLEYVSIINTYGNHWYANWASGRFTISRDNSKNTVYLQIDSLRAEDTATYYCARETHHGSSGIDHWGQGTLVTVSSASTKGPSVFPLAPSSKSTSGGTAALGCLVKDYFPEPVTVSWNSGALTSGVHTFPAVLQSSGLYSLSSVVTVPSSSLGTQTYICNVNHKPSNTKVDKKVEPKSCDKTHTCPPCPAPELLGGDSVFLFPPKPKDTLMISRTPEVTCVVVDVSHEDPEVKFNWYVDGVEVHNAKTKPREEQYNATYRVVSVLTVLHQDWLRGKEYKCKVSNKALPAPIEKTISKAKGQPREPQVYTLPPSREEMTKNQVSLTCLVKGFYPSDIAVEWESNGQPENNYKTTPPVLDSDGSFFLYSKLTVDKSRWQQGNVFSCSVMHEALHNHYTQKSLSLSP
light: DIQMTQSPSSVSASVGDRVTITCQASESIYSGLAWYQQKPGQPPKLLIYDHSTLASGVPSRFSGSGSGTEYALTISSLQPEDFATYYCQHADYAHHSDNVFGGGTKVEIKRTVAAPSVFIFPPSDEQLKSGTASVVCLLNNFYPREAKVQWKVDNALQSGNSQESVTEQDSKDSTYSLSSTLTLSKADYEKHKVYACEVTHQGLSSPVTKSFNRGEC
notes: copies: 2 + 2
B5: Ab1H-P926/Ab1L (antibody, human IgG1, kappa, name in EU numbering)
heavy: QVQLVESGGGLVQPGGSLRLSCAASGFTLSNHDMTWVRQAPGKGLEYVSIINTYGNHWYANWASGRFTISRDNSKNTVYLQIDSLRAEDTATYYCARETHHGSSGIDHWGQGTLVTVSSASTKGPSVFPLAPSSKSTSGGTAALGCLVKDYFPEPVTVSWNSGALTSGVHTFPAVLQSSGLYSLSSVVTVPSSSLGTQTYICNVNHKPSNTKVDKKVEPKSCDKTHTCPPCPAPELLGGDSVFLFPPKPKDTLMISRTPEVTCVVVDVSHEDPEVKFNWYVDGVEVHNAKTKPREERYNATYRVVSVLTVLHQDWLNGKEYKCKVSNKALPAPIEKTISKAKGQPREPQVYTLPPSREEMTKNQVSLTCLVKGFYPSDIAVEWESNGQPENNYKTTPPVLDSDGSFFLYSKLTVDKSRWQQGNVFSCSVMHEALHNHYTQKSLSLSP
light: DIQMTQSPSSVSASVGDRVTITCQASESIYSGLAWYQQKPGQPPKLLIYDHSTLASGVPSRFSGSGSGTEYALTISSLQPEDFATYYCQHADYAHHSDNVFGGGTKVEIKRTVAAPSVFIFPPSDEQLKSGTASVVCLLNNFYPREAKVQWKVDNALQSGNSQESVTEQDSKDSTYSLSSTLTLSKADYEKHKVYACEVTHQGLSSPVTKSFNRGEC
notes: copies: 2 + 2
B6: Ab1H-P925/Ab1L (antibody, human IgG1, kappa, name in EU numbering)
heavy: QVQLVESGGGLVQPGGSLRLSCAASGFTLSNHDMTWVRQAPGKGLEYVSIINTYGNHWYANWASGRFTISRDNSKNTVYLQIDSLRAEDTATYYCARETHHGSSGIDHWGQGTLVTVSSASTKGPSVFPLAPSSKSTSGGTAALGCLVKDYFPEPVTVSWNSGALTSGVHTFPAVLQSSGLYSLSSVVTVPSSSLGTQTYICNVNHKPSNTKVDKKVEPKSCDKTHTCPPCPAPELLGGDSVFLFPPKPKDTLMISRTPEVTCVVVDVSHEDPEVKFNWYVDGVEVHNAKTKPREEQRNATYRVVSVLTVLHQDWLNGKEYKCKVSNKALPAPIEKTISKAKGQPREPQVYTLPPSREEMTKNQVSLTCLVKGFYPSDIAVEWESNGQPENNYKTTPPVLDSDGSFFLYSKLTVDKSRWQQGNVFSCSVMHEALHNHYTQKSLSLSP
light: DIQMTQSPSSVSASVGDRVTITCQASESIYSGLAWYQQKPGQPPKLLIYDHSTLASGVPSRFSGSGSGTEYALTISSLQPEDFATYYCQHADYAHHSDNVFGGGTKVEIKRTVAAPSVFIFPPSDEQLKSGTASVVCLLNNFYPREAKVQWKVDNALQSGNSQESVTEQDSKDSTYSLSSTLTLSKADYEKHKVYACEVTHQGLSSPVTKSFNRGEC
notes: copies: 2 + 2

For the test, the target named is T1, soluble human FcγRIIb. As to the kind of experiment: SPR, Ab-IgE complex over captured hFcγRIIb, pH 7.4, 25C. A general note: Surface plasmon resonance follows binding to a sensor surface in real time, without labels.
Consider B1, for which the “relative binding (RU), P600=1.00” value is -0.07 fold. For the molecule B2, the “relative binding (RU), P600=1.00” value worked out at 0.25 fold. With B3 the figure was 1.63 fold; with B4, 2.08 fold. The figure for B5 is -0.06 fold. The figure for B6 is -0.05 fold.
